Assay results taken from the nanobody polyreactivity screen of Harvey et al. (2022).

Experiment: yeast display, Sf9 membrane polyspecificity reagent, FACS + sequencing; frameworks hold sequencing errors
How it was run: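 Genes from sorted yeast were amplified by colony PCR, read by MiSeq 2 × 250 sequencing and filtered on CDR length. These cells carried a synthetic nanobody library in Saccharomyces cerevisiae BJ5465 and were sorted by FACS into low and high (top ~1%) gates on anti-HA and streptavidin fluorescence. Polyreactivity is labelled according to the gate of origin.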
With “QVQLVESGGGLVQAGGSLRISCAASGFTFNANAMAWYRQAPGKERELVAAISLSGGRTYYADSVKRRFTISRDNAKNTVYLQMNSMKQVDTAVYYCAASPDGSFRRFSRVVSGDYWGQGTQVTVSS” the “polyreactivity (PSR sort gate)” value was “high polyreactivity”. With “QVQLVESGGGLVQAGGSLRISCAASGFTFPSNAMGWYRQAPGKERELVAAITGGGRTYYADSVKGRFTISRDNAKNTVFFQMNSLKPEDTAVYYCNRPTRVHLTHYDYCGQGTQVTVSS” the “polyreactivity (PSR sort gate)” value was “high polyreactivity”. In the case of “QVQLVESGGGLVQAGGSLRISCAASGFTFRSYAMGWYRQAPGKERELVAAISWRGGRTYYADSVKGRFTISRDNAKNTVYLQMNSLKPLDTAVYYCATDWYWGSYAPYTTRAHFDYWGQGTQVTVSS”, the “polyreactivity (PSR sort gate)” value is reported as “high polyreactivity”. With “QVQLVESGGGLVQAGGSLRISCAASGFTIAYYAMGWYRQAPGKERQKVASISSGDSTHYADSVKGRFTISRDNAKNTVYLQMNSLKPEDTAVYYCNADTRTFYYAAKTGFTFLYGYWGQGTQVTVSS” the “polyreactivity (PSR sort gate)” value was “high polyreactivity”. For “QVQLVESGGGLVQAGGSLRISCAASGGIFIRNAMGWYRQAPGKERELFATISNAGSTYADSVKGRFTISRDNAKNTVYLQMNSLKPEDTAVYYCNRVDWTYPVSQGLQEYDYRGQGTQVTVSS”, the “polyreactivity (PSR sort gate)” value was “low polyreactivity”. For “QVQLVESGGGLVQAGGSLRISCAASGHIFFYYTMGWYRPAPGKERELVAGITIGGSTNYADSVKGRFTISRDNAKNTVSLQMNSLKPEDTAVYYCNVVKYVYIYSYWEYYYWGQGTQVTVSS”, the “polyreactivity (PSR sort gate)” value was “low polyreactivity”. In the case of “QVQLVESGGGLVQAGGSLRISCAASGIIFALYAMGWYRQAPGKERELVAAISWSGDRTYYADSVKGRFTISRDNAKNTVYLQMNSLKPEDTAVYYCAADDYTADAVQRFYYWGQGTQVTVSS”, the “polyreactivity (PSR sort gate)” value is reported as “low polyreactivity”. With “QVQLVESGGGLVQAGGSLRISCAASGIIFDRYVMGWYRQAPGKERELVATITRSVNTDYADSVKGRFTISRDNAKNTVYLQMNSLKPEDTAVYYCAARKYYYFPVAYDYWGQGTQVTVSS” the “polyreactivity (PSR sort gate)” value was “high polyreactivity”. With “QVQLVESGGGLVQAGGSLRISCAASGIIFGEYAMGWYRQAPGKERELVAAISQSGGTYYADSVKGRFTISRDNAKNTVYLQMNSLKPEDTAVYYCNADYWAYISRVRYDYWGQGTQVTVSS” the “polyreactivity (PSR sort gate)” value was “low polyreactivity”. With “QVQLVESGGGLVQAGGSLRISCAASGITFEGYAMGWYRQAPGKESEFVAAITSTGTSTRYADSVKGRFTISRDNAKNTVYLQMNSLKPEDTAVYYCAAVARRLNTGKYYYWGQGTQVTVSS” the “polyreactivity (PSR sort gate)” value was “high polyreactivity”. In the case of “QVQLVESGGGLVQAGGSLRISCAASGITFGRYTMGWYRQAPGKERELVAAITNGDITYYADSVKGRFTISRDNAKNTVYLQMNSLKPDDTAVYYCAADRYFWYDYWGQATQVTVSS”, the “polyreactivity (PSR sort gate)” value is reported as “high polyreactivity”. With “QVQLVESGGGLVQAGGSLRISCAASGITFNKNDMGWYRQAPGKERELVAAISGRGGSTYYADSVKGRVTISRDNAKNTVYLQMNSLKPEDTAVYYCAADNFKGDSYGTGNYDYWGQGTQVTVSS” the “polyreactivity (PSR sort gate)” value was “high polyreactivity”. In the case of “QVQLVESGGGLVQAGGSLRISCAASGITFRYYTMGWYRQAPGKERELVAAINYRGGRTYYADSVKGRFTISRDNAKNTVYLQMNSLKPEDTAVYYCNTARVSRLGWSTTSDSWGQGTQVTVSS”, the “polyreactivity (PSR sort gate)” value is reported as “high polyreactivity”. With “QVQLVESGGGLVQAGGSLRISCAASGLIFAIYAMGWYRQAPGKERELVAAIRWSGASPYADSVKGRFTISRDNAKKTVYLQMNSLKPEDSAVYYCAADDLLDYDYWGQGTQVTVSA” the “polyreactivity (PSR sort gate)” value was “low polyreactivity”. With “QVQLVESGGGLVQAGGSLRISCAASGRICWNYALGWYRQAPGKEMELVASISYRGGSTYYADSVKGRVTISRDYAKNTVYLQMNSLKPEDTAVYYCAARSRQARRTDYGYWGQGTQVTVSS” the “polyreactivity (PSR sort gate)” value was “high polyreactivity”. In the case of “QVQLVESGGGLVQAGGSLRISCAASGRIFATNAMGWYRQAPGKERELVATITRSAGRTYYADSVKGRFTISRDTAKNTVYLQMNSLKPEDNAVYYFAASYGDTEPGYREYDYWGQGTQVTVSS”, the “polyreactivity (PSR sort gate)” value is reported as “low polyreactivity”. With “QVQLVESGGGLVQAGGSLRISCAASGRIFGKNALGRYRQAPGKERDLVAAITGSGGSTYYADSVKGRFTISRDNAKNTVYLQMNSLKPEDTAVYYCATAYAVYHVEYGYWGQGTQVTVSS” the “polyreactivity (PSR sort gate)” value was “low polyreactivity”. In the case of “QVQLVESGGGLVQAGGSLRISCAASGRIFHANAMGWYRQAPGKERELLAGISRNGGRTYYADSVKGRFTISRDNAKYTVYLQMNSLKPEDTAVYYCAADGLTGSKYRATGYYWGQGTQVTVSS”, the “polyreactivity (PSR sort gate)” value is reported as “high polyreactivity”. For “QVQLVESGGGLVQAGGSLRISCAASGRIFYFNGMGWYRQAPGKERELVAAITSGGSTYYADSVKGRFTISRDNAKNTVYLQMNSLKPEDTAVYYCAAQNAWWSNGRSYDYWGQGTQVTVSS”, the “polyreactivity (PSR sort gate)” value was “low polyreactivity”. With “QVQLVESGGGLVQAGGSLRISCAASGRIFYYNAIGWYRQAPGKERELVATITGSGGSSYYADSVKGRFTISRDNAKNTVYLQMKTLKPEDSAVYYCIASRWYYDFYNLDYWGQGTQVTVSS” the “polyreactivity (PSR sort gate)” value was “low polyreactivity”. For “QVQLVESGGGLVQAGGSLRISCAASGRTCNHYTMGWYRPAPGKERELVAAITSGGSTYYADSVKGRFTISRDNAKNTVYLQMNSLKPEDTAVYYCARVRPLYHYSRYDYWGQGTQVTVSS”, the “polyreactivity (PSR sort gate)” value was “high polyreactivity”. For “QVQLVESGGGLVQAGGSLRISCAASGRTFDINAMGWYSPAPGKERELVAAISSRGGTTFYADSVKGRFTISRDNAKNTVYLKMNSLKPEDSAVYYCAAVTSYYYTEEDYWGQGTQVTVSS”, the “polyreactivity (PSR sort gate)” value was “low polyreactivity”. With “QVQLVESGGGLVQAGGSLRISCAASGRTFDPYAMGWYRQAPGKERELVAAITSGGSTYYADTVKGRFTISRDNAKNTVYLQMNSLTPEDTAVYYCAKPYYRLEDYWGQGTQVTVSS” the “polyreactivity (PSR sort gate)” value was “low polyreactivity”. With “QVQLVESGGGLVQAGGSLRISCAASGRTFFGNAMGWYRQAPGKERELGASISTRGGSTYYADSVKGRFTISRDNAKNTVYLQINSLKPADTAVYDCAAPSQSRGYYYWGQGTQVNVSS” the “polyreactivity (PSR sort gate)” value was “high polyreactivity”. In the case of “QVQLVESGGGLVQAGGSLRISCAASGRTFFHYAMGWYRQAPGKERELVAGITSGGRTKYADSVKGRFTISRDNAKKTVYLQKNSMKPEDTAVYVCAASYIVWLTRGSPRKLFDYWGQGSQVTVSS”, the “polyreactivity (PSR sort gate)” value is reported as “high polyreactivity”. With “QVQLVESGGGLVQAGGSLRISCAASGRTFGANAMGWYRQAPGKERELVASISRSGGTTYYADSVKGRFTISRDNAKNTVYLQMNSLKPEDTAVYYCAAQYVRYGHYYWGQGTQVTVSS” the “polyreactivity (PSR sort gate)” value was “high polyreactivity”. For “QVQLVESGGGLVQAGGSLRISCAASGRTFHYNVMGWYTQAPGKERELVAAITNTGGSTYYADSVKGRFTISRDNAKNTVYLQMNSLKPEDTAVYYCAAVIWGRRYGAYPYEYWGQGTQVTVSS”, the “polyreactivity (PSR sort gate)” value was “low polyreactivity”. In the case of “QVQLVESGGGLVQAGGSLRISCAASGRTFKRYAMGWYRQAPGKERELVAAITGTGAITYYADSVKGRFTISRDNAKNTVYLQMNSLKPEDTAVYYCNARYWYRYGGYKPVGGYYWGQGTQVTVSS”, the “polyreactivity (PSR sort gate)” value is reported as “high polyreactivity”. In the case of “QVQLVESGGGLVQAGGSLRISCAASGRTFRYYGMGWYRQPPAKERVVAAITWSGDTTYYADSVKGRFTISRDNAKNTVYLQMNSLKPEDTAVYYFAAQSWHRYYYWGQGTQVTVSS”, the “polyreactivity (PSR sort gate)” value is reported as “high polyreactivity”. In the case of “QVQLVESGGGLVQAGGSLRISCAASGRTFWKYVRGWYRQAPGKERELVAVISRPAGSTYYADSVKGRFTISRDNAKNTVYLQMNSLKPEDTAVYYCAKRPKNKPVLGDYDHWGQGTQVTVSS”, the “polyreactivity (PSR sort gate)” value is reported as “low polyreactivity”. In the case of “QVQLVESGGGLVQAGGSLRISCAASGRTFYNNAMGWYRQAPGTERELVATIHNRGGTTYYADSVKGRFTISRYNAKNTVYLLMNSLKPEDTAVYYCAKSAQRYSYRYYYWGQGTQVTVSS”, the “polyreactivity (PSR sort gate)” value is reported as “high polyreactivity”. With “QVQLVESGGGLVQAGGSLRISCAASGRTLGGYTMGWYRQAPGKERELVAAITGSGSNTYYADSVKGRFTISRDNAKNTVYLQMNSLKPEDTAVYYCAAPYSYRTWYPYGYWGQGTQVTLSS” the “polyreactivity (PSR sort gate)” value was “high polyreactivity”. In the case of “QVQLVESGGGLVQAGGSLRISCAASGSIFGGYSMGWYRQAPGKERELVAAIRYSGVSTYYADSVKGRFTISRDNAKYTVYFQMNSLKAEDTAVYYCNAVPFYYHYDYWGQGTQVTVSS”, the “polyreactivity (PSR sort gate)” value is reported as “high polyreactivity”. For “QVQLVESGGGLVQAGGSLRISCAASGSIFGYNTMGWYRQAPGKERELVAAIRGSDSSTYYADSVKGRFTISRDNAKNTVYLQMNSVIPEDTAVYYCAAKYYWGQGTQVTVSS”, the “polyreactivity (PSR sort gate)” value was “high polyreactivity”. In the case of “QVQLVESGGGLVQAGGSLRISCAASGSIFLKYAMGWYRQAPGKERELVAAITWTDDRTYYADSVKGRFTISRDNAKNTVYLQMNSLKPEDTAVYYCNTATSKSSYRHYDYWGQGTQVTVSS”, the “polyreactivity (PSR sort gate)” value is reported as “high polyreactivity”. In the case of “QVQLVESGGGLVQAGGSLRISCAASGSILTHYAMGWYRQAPGKERELVADINSGGGTSYADSVKGRFTISRDNAKNTVYLQMNSLKPEDTAVYYCAAAWWPYRYPTYYSQFDYWGQGTQVTVSS”, the “polyreactivity (PSR sort gate)” value is reported as “low polyreactivity”. In the case of “QVQLVESGGGLVQAGGSLRISCAASGSISVRNVMGWYRHAPGKERELVATIRRTGGSTSYADSVKGRFTISRDNAKNTVYLQMNSLKPEDPAVYYCAAVGYTTYRRYDYWGQGTQVTVSS”, the “polyreactivity (PSR sort gate)” value is reported as “low polyreactivity”. In the case of “QVQLVESGGGLVQAGGSLRISCAASGSNFAYYAMGWYRQAPGKERELVAAITRGGRTYYADSVKGRFTISRDNAKNTVYLQMNSLKPEDTAVYYCNARNYTWYSSRFMRFDYWGLGTQVTVSS”, the “polyreactivity (PSR sort gate)” value is reported as “high polyreactivity”. With “QVQLVESGGGLVQAGGSLRISCAASGSSYGTYAMGWYRKAPGKERELVAAINFSGTSTYYADSVKGRFTISRDKAKHTVYLQMNRLKPEETADYYCAARFYWKYGRYDNWGQGTQVTVSS” the “polyreactivity (PSR sort gate)” value was “high polyreactivity”. In the case of “QVQLVESGGGLVQAGGSLRISCAASGSTFDPNVMGWYRQAPGKERELVAVITTTGVSTYYADSVKGRFTISRDNAKNTVYLQMNSLKPEETAVYYCNAKWYWYLTRDDFRYRYTYDYWGQGTQVTVSS”, the “polyreactivity (PSR sort gate)” value is reported as “low polyreactivity”.
